Laboratory results: patent US20150023989A1 (Seagen, published 2015)

Target: T1, hFGFR2α-Fc (IIIb) (Human, UniProt P21802-3 22-378, biotinylated with biotin-LC-NHS (2-fold molar excess), positions not stated)
T1 construct: Bought protein; also called RnD Systems 663-FR; not shown: Fc part of the bought fusion protein
Test: ELISA; biotinylated Fc fusion protein on streptavidin plate, Fab at 1 µg/ml; signal against TRAIL-Fc wells (+++: ratio >5)

T1 sequence (P21802 other isoform, or with tags, fused parts or gaps limits assumed): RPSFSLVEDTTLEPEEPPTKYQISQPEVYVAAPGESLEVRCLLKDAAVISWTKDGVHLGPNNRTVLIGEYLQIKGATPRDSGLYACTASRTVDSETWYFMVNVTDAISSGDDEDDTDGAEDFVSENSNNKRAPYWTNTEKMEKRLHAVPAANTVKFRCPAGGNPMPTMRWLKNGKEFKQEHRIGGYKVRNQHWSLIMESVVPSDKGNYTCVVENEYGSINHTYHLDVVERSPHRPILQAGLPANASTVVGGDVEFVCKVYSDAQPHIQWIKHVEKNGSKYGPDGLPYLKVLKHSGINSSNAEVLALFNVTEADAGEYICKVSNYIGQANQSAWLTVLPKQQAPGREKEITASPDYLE

B1: parental Fab fragment M048-D01 (Fab, V domains shown)
VH: EVQLLESGGGLVQPGGSLRLSCAASGFTFSSYAMSWVRQAPGKGLEWVSAISGSGTSTYYADSVKGRFTISRDNSKNTLYLQMNSLRAEDTAVYYCARVRYNWNHGDWFDPWGQGTLVTVSS
VL: QSVLTQPPSASGTPGQRVTISCSGSSSNIGNNYVSWYQQLPGTAPKLLIYENYNRPAGVPDRFSGSKSGTSASLAISGLRSEDEADYYCSSWDDSLNYWVFGGGTKLTVL
notes: Fab from the n-CoDeR phage display library, expressed in E. coli and purified through its his-tag; constant domains and tag are not; also called M048-D01 Fab; sFab
B1: binds.
